One may read the EC50 as the concentration at which the effect is half-maximal. Higher therefore signals a less potent agent.

Test [1] deals with T1, human FAPα (Fibroblast activation protein alpha), cell surface expressed (human, UniProt Q12884 1-760).
T1 construct: Endogenous on human lung fibroblasts and CAFs
T1 sequence: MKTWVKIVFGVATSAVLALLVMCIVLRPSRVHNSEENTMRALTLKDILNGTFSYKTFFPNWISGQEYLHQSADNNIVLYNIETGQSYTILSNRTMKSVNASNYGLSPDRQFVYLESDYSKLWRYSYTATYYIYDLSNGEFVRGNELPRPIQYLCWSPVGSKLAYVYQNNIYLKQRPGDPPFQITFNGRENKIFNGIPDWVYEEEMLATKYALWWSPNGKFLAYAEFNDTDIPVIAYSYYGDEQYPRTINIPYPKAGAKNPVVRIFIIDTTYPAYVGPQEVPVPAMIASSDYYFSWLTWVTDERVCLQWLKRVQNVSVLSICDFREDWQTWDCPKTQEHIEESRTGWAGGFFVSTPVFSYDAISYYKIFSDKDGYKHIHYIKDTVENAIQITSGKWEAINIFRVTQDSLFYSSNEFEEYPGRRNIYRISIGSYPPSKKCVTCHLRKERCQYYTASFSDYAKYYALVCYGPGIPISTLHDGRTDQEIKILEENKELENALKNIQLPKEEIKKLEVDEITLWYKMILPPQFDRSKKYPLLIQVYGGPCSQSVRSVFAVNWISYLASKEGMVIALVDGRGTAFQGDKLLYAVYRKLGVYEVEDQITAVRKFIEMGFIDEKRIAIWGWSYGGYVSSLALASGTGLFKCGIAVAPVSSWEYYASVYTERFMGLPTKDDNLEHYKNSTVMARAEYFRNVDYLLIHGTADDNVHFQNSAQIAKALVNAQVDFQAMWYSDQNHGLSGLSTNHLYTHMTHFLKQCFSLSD
Description: flow cytometry, human lung fibroblasts, n = 1. Here is the method:
Human lung fibroblasts and CAFs (50,000 cells/well) were seeded in 96-Well round bottom plates (Greiner Bio-one, Cat #650101). Antibody dilutions were prepared using fluorescence-activated cell sorting (FACS) buffer, consisting of phosphate buffer saline (PBS, Lonza, Cat #BE17-517Q)+1% Bovine Serum Albumin (BSA, Roche, Cat #10735086001)+0.02% Sodium Azide (Bio-World, Cat #41920044-3). Plates were centrifuged, supernatant was removed, cells were resuspended in 50 μL of human Fc Block (BD, Cat #564220, diluted 1:100 in FACS buffer) and 50 μL of viability stain TO-PRO-3 Iodide (Thermo Fisher, Cat #T3605, diluted 1: 25,000 in FACS buffer), and incubated for 15 min at 4° C. Plates were washed three times with FACS buffer. Plates were centrifuged, supernatant was removed, cells were resuspended in 50 μL of antibody dilutions (concentration range 90-0.0005 μg/mL, three-fold dilution steps using FACS buffer) of BisG1-FAPα-FERL/DR4-FERR, BisG1-FAPα-FERL/b12-FERR, BisG1-b12-FERL/b12-FERR (top six concentrations only for CAFs culture) or IgG1-FAPα-FERL (top four concentrations only for CAFs culture) and incubated for 30 min at 4° C. Cells were washed three times with FACS buffer and resuspended in 50 μL of Fluorescein isothiocyanate (FITC)-labeled polyclonal antibody goat anti-mouse IgG1 (Jackson Immuno Research, Cat #109-096-097, diluted 1:100 in FACS buffer). After 30 min incubation at 4° C., cells were washed twice with FACS buffer and resuspended in FACS buffer. Antibody binding to viable cells (TO-PRO-3 negative) was analyzed by flow cytometry on a FACSCelesta™ (BD biosciences) and data were processed using FlowJo_v10.8.1 (FlowJo LLC). Geomean fluorescence intensity, gMFI, was determined and visualized using GraphPad Prism. Binding curves were analyzed using nonlinear regression analysis. The concentration (pg/mL) at which 50% of the maximal effect was observed (EC₅₀) was derived from the fitted curves.
Binding of FAPα-targeting monoclonal antibody clones, IgG1-FAPα-FEAL and IgG1-FAP5-FEAL, and bispecific antibodies carrying a binding arm derived from the two FAPα-binding clones (BisG1-FAPα-FEAL/b12-FEAR and BisG1-FAP5-FEAL/b12-FEAR) to human lung fibroblasts, which endogenously express FAPα, was compared and analyzed by flow cytometry.
(Flow cytometry measures light scatter and fluorescence of single cells or particles in a stream.)

Test [2] concerns the target T2, human DR4 (Death Receptor 4), cell surface expressed on human tumor cell lines (human, UniProt O00220 24-468).
T2 construct: also called TNFRSF10A; TRAIL-R1
T2 sequence: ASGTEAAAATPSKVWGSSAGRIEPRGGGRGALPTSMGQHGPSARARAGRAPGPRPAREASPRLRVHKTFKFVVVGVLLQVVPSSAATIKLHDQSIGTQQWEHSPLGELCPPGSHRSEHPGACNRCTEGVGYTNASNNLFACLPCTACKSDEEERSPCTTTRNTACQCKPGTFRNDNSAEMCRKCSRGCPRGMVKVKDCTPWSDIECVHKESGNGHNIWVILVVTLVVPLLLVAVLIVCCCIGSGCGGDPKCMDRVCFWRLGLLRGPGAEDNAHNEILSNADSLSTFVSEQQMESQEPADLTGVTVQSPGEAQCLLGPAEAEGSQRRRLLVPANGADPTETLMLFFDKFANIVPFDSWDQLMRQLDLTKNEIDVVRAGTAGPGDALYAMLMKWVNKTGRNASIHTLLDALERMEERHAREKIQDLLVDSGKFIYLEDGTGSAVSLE
Briefly: flow cytometry, MDA-MB-231 cells, N = 2.

Test [3] concerns the target T2, human DR4 (Death Receptor 4), cell …. Description: flow cytometry, MDA-MB-231 cells, average ± SEM.
Test [4] has the same target. Briefly: flow cytometry, MDA-MB-231 cells, N = 1.

B1: IgG1-FAPα-FEAL (antibody)
heavy: EVQLLESGGGLVQPGGSPRLSCEASGFTFSSYALSWVRQAPGKGLEWVSAISGSGGGRYYADSVKGRFTISRDNSKNTLFLQMNSLRAEDTAVYYCAKEGYSSSGTYWDHWGQGTLVTVSSASTKGPSVFPLAPSSKSTSGGTAALGCLVKDYFPEPVTVSWNSGALTSGVHTFPAVLQSSGLYSLSSVVTVPSSSLGTQTYICNVNHKPSNTKVDKRVEPKSCDKTHTCPPCPAPEFEGGPSVFLFPPKPKDTLMISRTPEVTCVVVAVSHEDPEVKFNWYVDGVEVHNAKTKPREEQYNSTYRVVSVLTVLHQDWLNGKEYKCKVSNKALPAPIEKTISKAKGQPREPQVYTLPPSREEMTKNQVSLTCLVKGFYPSDIAVEWESNGQPENNYKTTPPVLDSDGSFLLYSKLTVDKSRWQQGNVFSCSVMHEALHNHYTQKSLSLSPG
light: AIQMTQSPSSVSASVGDRVTITCRASQGVSSWLAWYQQKPGRAPKLLIYVASTLQSGVPSRFSGSGSGTDFTLTINSLQPEDFATYYCQQANSFPPTFGQGTRLEMKRTVAAPSVFIFPPSDEQLKSGTASVVCLLNNFYPREAKVQWKVDNALQSGNSQESVTEQDSKDSTYSLSSTLTLSKADYEKHKVYACEVTHQGLSSPVTKSFNRGEC
With B1, the EC50 in test [1] amounted to 0.014 µg/mL.

B2: BisG1-b12-FEAL/DR4-chCTB007-FEAR (bispecific antibody, human IgG1, kappa)
heavy 1: QVQLVQSGAEVKKPGASVKVSCQASGYRFSNFVIHWVRQAPGQRFEWMGWINPYNGNKEFSAKFQDRVTFTADTSANTAYMELRSLRSADTAVYYCARVGPYSWDDSPQDNYYMDVWGKGTTVIVSSASTKGPSVFPLAPSSKSTSGGTAALGCLVKDYFPEPVTVSWNSGALTSGVHTFPAVLQSSGLYSLSSVVTVPSSSLGTQTYICNVNHKPSNTKVDKRVEPKSCDKTHTCPPCPAPEFEGGPSVFLFPPKPKDTLMISRTPEVTCVVVAVSHEDPEVKFNWYVDGVEVHNAKTKPREEQYNSTYRVVSVLTVLHQDWLNGKEYKCKVSNKALPAPIEKTISKAKGQPREPQVYTLPPSREEMTKNQVSLTCLVKGFYPSDIAVEWESNGQPENNYKTTPPVLDSDGSFLLYSKLTVDKSRWQQGNVFSCSVMHEALHNHYTQKSLSLSPG
light 1: EIVLTQSPGTLSLSPGERATFSCRSSHSIRSRRVAWYQHKPGQAPRLVIHGVSNRASGISDRFSGSGSGTDFTLTITRVEPEDFALYYCQVYGASSYTFGQGTKLERKRTVAAPSVFIFPPSDEQLKSGTASVVCLLNNFYPREAKVQWKVDNALQSGNSQESVTEQDSKDSTYSLSSTLTLSKADYEKHKVYACEVTHQGLSSPVTKSFNRGEC
heavy 2: EVQLQQSGAELVKPGASVKLSCTASGFNIKDTYMHWVKQRPEQGLEWIGRIDPANGNTKYDPKFQGKATITADTSSNTAYLQLSSLTSEDTAVYYCAYYYVSNAWFTYWGQGTLVTVSAASTKGPSVFPLAPSSKSTSGGTAALGCLVKDYFPEPVTVSWNSGALTSGVHTFPAVLQSSGLYSLSSVVTVPSSSLGTQTYICNVNHKPSNTKVDKRVEPKSCDKTHTCPPCPAPEFEGGPSVFLFPPKPKDTLMISRTPEVTCVVVAVSHEDPEVKFNWYVDGVEVHNAKTKPREEQYNSTYRVVSVLTVLHQDWLNGKEYKCKVSNKALPAPIEKTISKAKGQPREPQVYTLPPSREEMTKNQVSLTCLVKGFYPSDIAVEWESNGQPENNYKTTPPVLDSDGSFFLYSRLTVDKSRWQQGNVFSCSVMHEALHNHYTQKSLSLSPG
light 2: DIQMTQSPASLSVSVGETVTITCRASENIYSNLEWYQQKQGKSPQLLVYAATNLADGVPSRFSGSGSGTQYSLKINSLQSEDFGSYYCQHFWGTWTFGGGTKLEIKRTVAAPSVFIFPPSDEQLKSGTASVVCLLNNFYPREAKVQWKVDNALQSGNSQESVTEQDSKDSTYSLSSTLTLSKADYEKHKVYACEVTHQGLSSPVTKSFNRGEC
notes: Fab-arm exchange of IgG1-b12-FEAL and IgG1-DR4-chCTB007-FEAR
Consider B2, for which the figures for the EC50 in test [2], in test [3] and in test [4] were 2.68 µg/mL, 2.14 µg/mL and 1.61 µg/mL, respectively. Moreover, the “Max MFI (at 90 µg/mL)” value in test [2] turned out to be 2160 MFI; in test [3], 2550 MFI; in test [4], 2950 MFI.

B3: IgG1-DR4-T1014A04-FEAR (antibody, V domains shown)
VH: EVQLVQSGADVKRPGASVKVSCKISGDSFNAYFIHWVRQAPGQGLEWMGWFNPDSGTADSAQKFHGRVTMTRDTSSSTAFLELSRLRSDDTAVYYCVRQHRGNTFAPWGRGTMVTVSS
VL: QSVLTQPPSASGSPGQSVTISCTGTTSDVGGYNYVSWYQQHPGKAPKLMIYGVNQRPSGVPDRFSGSKSGNTASLTVSGLQAEDEADYYCSSYAGSNNWVFGGGTKLTVLG
notes: Prior art DR4 clone (US 7,361,341 B2)
Consider B3, for which the EC50 worked out at 2.04 µg/mL in test [2], 1.25 µg/mL in test [3] and 0.45 µg/mL in test [4]. Moreover, the “Max MFI (at 90 µg/mL)” value came out at 1610 MFI in test [2], 1280 MFI in test [3] and 953 MFI in test [4].
